Sequences and labels used below:
B1: H240-Kn120/H240-Hl068/L73-k0 (antibody, human IgG1, kappa)
heavy 1: QDQLVQSGAEVKKPGASVKVSCKASGFNIKDTYIQWVRQAPGQGLEWMGRIDPLRKQTKYREKFEGRVTITADTSTNTAYMELSSLRSEDTAVYYCVRSGREFDYWGQGTLVTVSSASTKGPSVFPLAPSSKSTSGGTAALGCLVKDYFPEPVTVSWNSGALTSGVHTFPAVLQSSGLYSLSSVVTVPSSSLGTQTYICNVNHKPSNTKVDKKVEPKSCDKTHTCPPCPAPEYYWGPMVFLFPPKPKDTLMISRTPEVTCVVVDVSDEDPEVKFNWYVDGVEVHNAKTKPREEQYNATYRVVSVLTVLHQDWLNGKEYKCKVSNKDLPAPIEKTISKAKGQPREPQVCTLPPSRDELTKNQVSLWCLVKGFYPSDIAVEWESNGQPENNYKTTPPVLDSDGSFFLYSKLTVDKSRWQQGNVFSCSVMHEALHNHYTQKSLSLSP
heavy 2: QDQLVQSGAEVKKPGASVKVSCKASGFNIKDTYIQWVRQAPGQGLEWMGRIDPLRKQTKYREKFEGRVTITADTSTNTAYMELSSLRSEDTAVYYCVRSGREFDYWGQGTLVTVSSASTKGPSVFPLAPSSKSTSGGTAALGCLVKDYFPEPVTVSWNSGALTSGVHTFPAVLQSSGLYSLSSVVTVPSSSLGTQTYICNVNHKPSNTKVDKKVEPKSCDKTHTCPPCPAPELLGGPSVFLFPPKPKDTLMISRTPEVTCVVVDVSHEEPEVKFNWYVDGVEVHNAKTKPREEQYNSTYRVVSVLTVLHQDWLNGKEYKCKVSNDALPKPIEETISKAKGQPREPQVYTLPPSRCELTKNQVSLSCAVKGFYPSDIAVEWESNGQPENNYKTTPPVLDSDGSFFLVSKLTVDKSRWQQGNVFSCSVMHEALHNHYTQKSLSLSP
light: DIQMTQSPSSLSASVGDRVTITCRASQDIHKYIAWYQQKPGQAPRLLIQYTSTLQPGVPSRFSGSGSGTDYTFTISSLQPEDIATYYCLQYEQLRTFGGGTKVEIKRTVAAPSVFIFPPSDEQLKSGTASVVCLLNNFYPREAKVQWKVDNALQSGNSQESVTEQDSKDSTYSLSSTLTLSKADYEKHKVYACEVTHQGLSSPVTKSFNRGEC
notes: Heterodimerized anti-epiregulin IgG1-type antibody (knobs-into-holes); also called H240-Kn120/H240-HI068/L73-k0
B2: H240-Kn120/H240-Hl086/L73-k0 (antibody, human IgG1, kappa)
heavy 1: B1 heavy 1
heavy 2: B1 heavy 2 with G235I
light: B1 light
notes: Heterodimerized anti-epiregulin antibody; G236I in the Hl068 chain; also called H240-Kn120/H240-HI086/L73-k0
B3: H240-Kn120/H240-Hl085/L73-k0 (antibody, human IgG1, kappa)
heavy 1: B1 heavy 1
heavy 2: B1 heavy 2 with G235V
light: B1 light
notes: Heterodimerized anti-epiregulin antibody; G236V in the Hl068 chain; also called H240-Kn120/H240-HI085/L73-k0
B4: H240-Kn179/H240-Hl089/L73-k0 (antibody, human IgG1, kappa)
heavy 1: B1 heavy 1 with E293K
heavy 2: B1 heavy 2 with G235T
light: B1 light
notes: Heterodimerized anti-epiregulin antibody; E294R in one chain, G236T in the other
B5: H240-Kn180/H240-Hl089/L73-k0 (antibody, human IgG1, kappa)
heavy 1: B1 heavy 1 with E293R
heavy 2: B1 heavy 2 with G235T
light: B1 light
notes: Heterodimerized anti-epiregulin antibody; E294K in one chain, G236T in the other

Substitutions are numbered along the chain they refer to. Numbers in names are those of the source.

A word on the Kd: it is the free concentration of one partner at which half of the binding sites on the other are occupied at equilibrium, for simple one-to-one binding. Read a high Kd as weaker binding.

In the first experiment the target is T1, FcgRIIb (human, UniProt P31994 43-217).
T1 construct: extracellular domain; also called FcγRIIb; CD32B; not shown: C-terminal His tag
T1 sequence (looked up): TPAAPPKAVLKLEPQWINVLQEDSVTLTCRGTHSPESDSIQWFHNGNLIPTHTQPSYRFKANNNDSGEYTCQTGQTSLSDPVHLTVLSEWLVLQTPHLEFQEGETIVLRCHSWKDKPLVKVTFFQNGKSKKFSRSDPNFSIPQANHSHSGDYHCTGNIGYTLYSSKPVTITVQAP
The experiment in a line: SPR (Biacore); KD of H240-Kn120/H240-Hl068/L73-k0 divided by KD of the sample. The protocol:
(§1) The variants described above were assessed for their binding to FcgR according to the method described in Reference Example 8.
(§2) Analysis of interaction between obj ective antibody and the FcγR was carried out using Biacore T100 (GE Healthcare), Biacore T200, Biacore A100, and Biacore 4000. HBS-EP+ (GE Healthcare) was used as the running buffer, and the measurement temperature was set to 25° C. Chips produced by immobilizing the antigen peptide by the amine coupling method to a Series S sensor Chip CM5 (GE Healthcare), chips produced by allowing preliminarily biotinylated antigen peptides to interact with and immobilize onto a Series S Sensor Chip SA (certified) (GE Healthcare), chips produced by immobilizing Protein L (ACTIGEN, BioVision) to Series S Sencor Chip CM5 (GE Healthcare), or chips produced by immobilizing Protein A/G (Thermo Scientific) to Series S Sencor Chip CM5 (GE Healthcare) were used. Antibodies of interest were captured onto these chips, and allowed to interact to each FcγR diluted with running buffer. To regenerate and repeatedly use the chip, the antibodies captured onto the chip were washed off by reacting 10 mM glycine-HCl, pH 1.5.
(In general: Surface plasmon resonance follows binding to a sensor surface in real time, without labels.)
Take B1: the “Relative KD” value came to 1.
The same measure, in the same setting: the figure for B2 is 0.3; for B3 it is 0.4.

A further experiment has as its target T2, FcgRIIaR (human, UniProt P12318 34-217).
T2 construct: extracellular domain; R131 allotype; also called FcγRIIa R; FcgRIIa type R; not shown: C-terminal His tag
T2 sequence (looked up): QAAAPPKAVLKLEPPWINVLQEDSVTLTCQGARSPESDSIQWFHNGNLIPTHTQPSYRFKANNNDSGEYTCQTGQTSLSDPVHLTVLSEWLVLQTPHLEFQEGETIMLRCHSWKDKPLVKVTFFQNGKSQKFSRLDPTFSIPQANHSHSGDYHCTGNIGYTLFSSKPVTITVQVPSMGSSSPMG
The experiment is described as above. The protocol:
as §1, §2
Regarding B1, the “Relative KD” value amounted to 1.
Still for that read-out and setting: the figure for B2 is 0.9.
B3: the “Relative KD” value is 1.1.

In the next experiment the target is T3, FcgRIIIaF (human, UniProt P08637 17-208).
T3 construct: extracellular domain; F158 allotype; also called FcγRIIIa F; not shown: C-terminal His tag
T3 sequence (P08637 17-208): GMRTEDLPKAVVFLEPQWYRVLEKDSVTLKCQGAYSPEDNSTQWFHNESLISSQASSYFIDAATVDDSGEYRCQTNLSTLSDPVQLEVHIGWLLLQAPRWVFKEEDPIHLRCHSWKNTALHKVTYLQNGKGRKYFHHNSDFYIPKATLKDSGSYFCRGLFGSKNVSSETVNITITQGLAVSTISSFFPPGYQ
Described as above. As to the method: as §1, §2
Regarding B1, the “Relative KD” value turned out to be 1.
Still for that read-out and setting: the figure for B2 is 0.1.
On the same count and under the same terms, the result for B3 reads 0.1.

For the next experiment, the target named is T4, FcgRIIaH (human, UniProt P12318 34-217).
T4 construct: extracellular domain; H131 allotype; also called FcγRIIa H; FcgRIIa type H; not shown: C-terminal His tag
T4 sequence (looked up): T2 sequence (looked up) with R134H
The description is as above. The protocol: as §1, §2
For the molecule B1, the “Relative KD” value is 1.
On the same count and under the same terms, the figure for B2 is 0.8.
Take B3: the “Relative KD” value was found to be 0.9.

For the next experiment, the target named is T5, FcgRIIIaV (human, UniProt P08637 17-208).
T5 construct: extracellular domain; V158 allotype; also called FcγRIIIa V; not shown: C-terminal His tag
T5 sequence (P08637 17-208 F176V limits assumed): as the sequence (P08637 17-208) above, with F160V counted along it
The experiment is described as above. The protocol: as §1, §2
For B1, the “Relative KD” value was 1.
The same measure, in the same setting: the figure for B2 is 0; for B3 it is 0.1.

A further experiment addresses T1, FcgRIIb. As to the kind of experiment: SPR (Biacore), antibody captured on chip, FcgR as analyte. As to the method:
(§3) The variants described above were assessed for their binding to FcγR according to the method described in Reference Example 8.
as §2
As for B1, binding was put at a Kd of 150 nM.
On the same count and under the same terms, the result for B4 reads 400 nM; that for B5, 380 nM.

The next experiment has as its target T2, FcgRIIaR. The experiment is described as above. The protocol: as §3, §2
On to B1, for which the Kd turned out to be 20 nM.
The same measure, in the same setting: the figure for B4 is 18 nM; for B5 it is 16 nM.

The target of a further experiment is T3, FcgRIIIaF. Described as above. The protocol:
as §3, §2
Molecule B1 had a dissociation constant Kd of 2.2 nM.
Still for that read-out and setting: the result for B4 reads 39 nM.
In turn, B5 showed an equilibrium dissociation constant (Kd) of 24 nM.

The next experiment concerns the target T4, FcgRIIaH. The experiment is described as above. The protocol: as §3, §2
Turning to B1, the Kd was determined as 41 nM.
On the same count and under the same terms, the figure for B4 is 47 nM; for B5 it is 38 nM.

For the next experiment, the target named is T6, FcgRIa (human, UniProt P12314 16-292).
T6 construct: extracellular domain; also called FcγRIa; FcγRI; not shown: C-terminal His tag
T6 sequence (P12314 16-292): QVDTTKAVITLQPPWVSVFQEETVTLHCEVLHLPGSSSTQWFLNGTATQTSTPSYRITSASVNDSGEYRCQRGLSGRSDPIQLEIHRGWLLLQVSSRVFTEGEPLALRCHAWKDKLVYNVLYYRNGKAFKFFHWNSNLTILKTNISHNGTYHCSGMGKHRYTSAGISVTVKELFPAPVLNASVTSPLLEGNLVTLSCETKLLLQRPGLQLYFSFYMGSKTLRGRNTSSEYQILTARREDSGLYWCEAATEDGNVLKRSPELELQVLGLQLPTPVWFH
Described as above. As to the method: as §3, §2
In the case of B1, the dissociation constant (Kd) came to 0.16 nM.
Same read-out and setting: the result for B4 reads 0.46 nM; that for B5, 0.27 nM.

In a further experiment the target is T5, FcgRIIIaV. The experiment is described as above. As to the method: as §3, §2
Molecule B1 registered a Kd of 0.36 nM.
On the same count and under the same terms, the figure for B4 is 18 nM; for B5 it is 14 nM.

In the next experiment the target is T1, FcgRIIb. Described as above. This is another data set of the same source. As to the method:
as §1, §2
Molecule B1 had a Kd of 150 nM.
B2: the Kd amounted to 480 nM.
The same measure, in the same setting: the result for B3 reads 390 nM.

The next experiment concerns the target T2, FcgRIIaR. Described as above. This is another data set of the same source. The protocol:
as §1, §2
In turn, B1 yielded a Kd of 20 nM.
The same measure, in the same setting: the result for B2 reads 22 nM; that for B3, 19 nM.

In another experiment the target is T3, FcgRIIIaF. The description is as above. The source holds these as a separate data set. The protocol: as §1, §2
In turn, B1 had a Kd of 2.2 nM.
On the same count and under the same terms, the result for B2 reads 33 nM.
Regarding B3, binding was put at a Kd of 23 nM.

The next experiment has as its target T4, FcgRIIaH. The description is as above. The source holds these as a separate data set. The protocol:
as §1, §2
Take B1: the equilibrium dissociation constant (Kd) was found to be 41 nM.
Molecule B2 registered a Kd of 53 nM.
Same read-out and setting: the figure for B3 is 46 nM.

In another experiment the target is T6, FcgRIa. The description is as above. The source holds these as a separate data set. As to the method:
as §1, §2
Turning to B1, the Kd worked out at 0.16 nM.
Same read-out and setting: the result for B2 reads 1.4 nM.
In the case of B3, binding was characterised by a dissociation constant (Kd) of 87 nM.

In the next experiment the target is T5, FcgRIIIaV. The description is as above. This is another data set of the same source. As to the method:
as §1, §2
B1 showed an equilibrium dissociation constant (Kd) of 0.36 nM.
The molecule B2 showed a Kd of 14 nM.
Same read-out and setting: the figure for B3 is 6.2 nM.

In another experiment the target is T1, FcgRIIb. As to the kind of experiment: SPR (Biacore); KD of H240-Kn120/H240-Hl068/L73-k0 divided by KD of the sample. This is another data set of the same source. As to the method:
as §3, §2
For B1, the “Relative KD” value is 1.
On the same count and under the same terms, the result for B4 reads 0.4; that for B5, 0.4.

For another experiment, the target named is T2, FcgRIIaR. The experiment is described as above. The source holds these as a separate data set. The protocol: as §3, §2
Consider B1, for which the “Relative KD” value was determined as 1.
As for B4, the “Relative KD” value is 1.1.
On the same count and under the same terms, the figure for B5 is 1.3.

The target in the next experiment is T3, FcgRIIIaF. The description is as above. This is another data set of the same source. As to the method:
as §3, §2
For the molecule B1, the “Relative KD” value came to 1.
The same measure, in the same setting: the figure for B4 is 0.1; for B5 it is 0.1.

The target in a further experiment is T4, FcgRIIaH. The experiment is described as above. This is another data set of the same source. The protocol: as §3, §2
Take B1: the “Relative KD” value was 1.
The same measure, in the same setting: the result for B4 reads 0.9; that for B5, 1.1.

The target in the next experiment is T5, FcgRIIIaV. The experiment is described as above. This is another data set of the same source. As to the method:
as §3, §2
Take B1: the “Relative KD” value turned out to be 1.
The same measure, in the same setting: the result for B4 reads 0.
Same read-out and setting: the figure for B5 is 0.

These data come from US20180155451A1 (published 2018).
